These results are taken from patent publication CN101022829A (GENENTECH INC, dated 2007).

The target in test [1] is T1, human CD20 (human) (UniProt P11836).
T1 sequence (looked up): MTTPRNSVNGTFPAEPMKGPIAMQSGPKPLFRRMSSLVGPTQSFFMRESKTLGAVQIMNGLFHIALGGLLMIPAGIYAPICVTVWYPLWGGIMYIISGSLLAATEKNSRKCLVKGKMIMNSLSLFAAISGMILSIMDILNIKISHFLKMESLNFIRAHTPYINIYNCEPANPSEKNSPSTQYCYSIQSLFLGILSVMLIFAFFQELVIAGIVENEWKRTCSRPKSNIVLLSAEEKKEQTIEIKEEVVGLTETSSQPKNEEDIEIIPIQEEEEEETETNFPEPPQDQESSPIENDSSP
The experiment in a line: cell-based or functional assay.

Test [2] has as its target T1, human CD20 (human). The experiment in a line: Scatchard, competition with 125I-2H7.v16 on WIL2-S cells, n=3.
The target in test [3] is T2, human CD20 (human, UniProt P11836 1-297).
T2 construct: whole, on cells; also called Bp35
T2 sequence (looked up): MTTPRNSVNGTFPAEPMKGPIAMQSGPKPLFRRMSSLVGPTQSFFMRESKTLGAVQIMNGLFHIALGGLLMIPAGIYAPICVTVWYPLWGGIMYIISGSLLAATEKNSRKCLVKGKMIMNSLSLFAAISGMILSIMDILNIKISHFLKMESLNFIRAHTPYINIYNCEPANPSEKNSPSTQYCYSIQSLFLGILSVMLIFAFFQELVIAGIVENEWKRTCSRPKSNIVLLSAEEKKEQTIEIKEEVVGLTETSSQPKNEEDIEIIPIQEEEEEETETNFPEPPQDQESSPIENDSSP
Nature of the test: cell ELISA, WIL2-S; v16 as comparator, normalised to chimera. (An ELISA detects its analyte on a solid surface through an enzyme-linked reagent.)

Test [4] has as its target T2, human CD20. The experiment in a line: Scatchard, competition with 125I-2H7.v16 on WIL2-S cells, n=4.

One may read the Kd as the equilibrium constant for the complex coming apart. Lower therefore signals tighter binding. For RITUXAN (rituximab) (antibody), in the test with human CD20 (human) [1], the ADCC, EC50(variant)/EC50(2H7.v16) is 5.3; the ADCC, EC50(variant)/EC50(RITUXAN) stood at 1; the CDC, EC50(variant)/EC50(RITUXAN) worked out at 1. The molecule also displayed a Kd with human CD20 (human) [2] of 0.99 nM.

B1: 2H7.v138 (antibody, human IgG1, kappa, V domains shown)
VH: EVQLVESGGGLVQPGGSLRLSCAASGYTFTSYNMHWVRQAPGKGLEWVGAIYPGNGATSYNQKFKGRFTISVDKSKNTLYLQMNSLRAEDTAVYYCARVVYYSASYWYFDVWGQGTLVTVSS
VL: DIQMTQSPSSLSASVGDRVTITCRASSSVSYLHWYQQKPGKAPKPLIYAPSNLASGVPSRFSGSGSGTDFTLTISSLQPEDFATYYCQQWAFNPPTFGQGTKVEIKR
B1: the relative binding (ratio to v6.8) with human CD20 [3] was 1.2.

B2: 2H7.v73 (antibody, V domains shown)
VH: EVQLVESGGGLVQPGGSLRLSCAASGYTFTSYNMHWVRQAPGKGLEWVGAIYPGNGDTSYNQKFKGRFTISVDKSKNTLYLQMNSLRAEDTAVYYCARVVYYSASYWYFDVWGQGTLVTVSS
VL: DIQMTQSPSSLSASVGDRVTITCRASSSVSYLHWYQQKPGKAPKPLIYAPSNLASGVPSRFSGSGSGTDFTLTISSLQPEDFATYYCQQWSFNPPTFGQGTKVEIKR
In the test with human CD20 [4], B2 registered a Kd of 1.22 nM.
